For one assay, the target named is T1, mouse ADAMTS7 (Mus musculus, UniProt Q68SA9, E373Q).
T1 construct: Full-length mouse Adamts7 1-1857 (Uniprot Q68SA9, WT or E373Q catalytic mutant); expressed in transfected cells; host or cells: Human Coronary Artery Smooth Muscle Cells (HCA-SMC, Lonza), adenovirus 50 MOI
T1 sequence (Q68SA9 221-1657 E373Q): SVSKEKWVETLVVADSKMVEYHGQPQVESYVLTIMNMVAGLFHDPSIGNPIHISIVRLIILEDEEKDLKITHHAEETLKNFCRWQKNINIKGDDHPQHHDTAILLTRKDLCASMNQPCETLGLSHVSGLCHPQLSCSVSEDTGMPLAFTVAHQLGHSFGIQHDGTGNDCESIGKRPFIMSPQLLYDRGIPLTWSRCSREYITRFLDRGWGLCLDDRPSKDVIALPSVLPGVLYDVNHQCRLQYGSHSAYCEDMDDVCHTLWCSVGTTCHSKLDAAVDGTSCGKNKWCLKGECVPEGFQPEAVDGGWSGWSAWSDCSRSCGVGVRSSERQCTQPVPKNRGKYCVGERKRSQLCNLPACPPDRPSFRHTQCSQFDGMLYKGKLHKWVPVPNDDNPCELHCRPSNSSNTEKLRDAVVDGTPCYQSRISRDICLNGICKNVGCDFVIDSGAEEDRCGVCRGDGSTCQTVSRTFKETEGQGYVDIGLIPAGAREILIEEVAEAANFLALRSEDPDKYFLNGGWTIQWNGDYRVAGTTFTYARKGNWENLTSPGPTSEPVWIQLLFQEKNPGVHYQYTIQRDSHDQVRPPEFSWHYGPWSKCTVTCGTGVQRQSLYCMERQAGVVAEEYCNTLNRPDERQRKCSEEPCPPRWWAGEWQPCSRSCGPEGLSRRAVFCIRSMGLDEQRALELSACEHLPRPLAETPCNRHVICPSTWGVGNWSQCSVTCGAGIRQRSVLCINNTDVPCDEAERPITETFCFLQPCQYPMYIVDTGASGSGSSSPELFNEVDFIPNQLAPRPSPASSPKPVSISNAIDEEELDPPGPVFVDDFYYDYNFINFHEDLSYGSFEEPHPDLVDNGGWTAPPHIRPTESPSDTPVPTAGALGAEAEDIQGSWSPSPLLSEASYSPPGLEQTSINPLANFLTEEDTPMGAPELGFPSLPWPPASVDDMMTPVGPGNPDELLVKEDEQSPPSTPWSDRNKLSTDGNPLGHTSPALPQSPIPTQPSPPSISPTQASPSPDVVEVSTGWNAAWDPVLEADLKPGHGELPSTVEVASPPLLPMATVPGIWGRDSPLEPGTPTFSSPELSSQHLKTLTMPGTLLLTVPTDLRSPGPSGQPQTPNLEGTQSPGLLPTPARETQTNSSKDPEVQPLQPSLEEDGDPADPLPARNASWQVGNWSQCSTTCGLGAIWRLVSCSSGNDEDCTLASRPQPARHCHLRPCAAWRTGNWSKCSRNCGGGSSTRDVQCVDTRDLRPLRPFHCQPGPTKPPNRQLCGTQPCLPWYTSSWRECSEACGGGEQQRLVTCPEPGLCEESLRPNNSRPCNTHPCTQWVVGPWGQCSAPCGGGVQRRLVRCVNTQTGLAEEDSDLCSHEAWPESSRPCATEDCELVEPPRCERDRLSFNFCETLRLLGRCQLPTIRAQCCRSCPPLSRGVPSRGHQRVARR
Description: TMT10 TAILS N-terminomics, SMC2 experiment (process replicates, trypsin/AspN digest). Type of assay: cell-based. Particulars: SMC2_TAILS HC; log fold change of N-terminal peptide, Ad-mADAMTS7 EQ over Luc. The gist of the method: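 Full-length mouse ADAMTS7 (WT or E373Q mutant, C-terminal 3xFLAG) or luciferase was transduced via adenovirus, 50 MOI, into HCA-SMC (SMC1, SMC2) or HUVEC. SMC1: pooled media, technical triplicates 400 ug; SMC2: process triplicates 300 ug; HUVEC: process triplicates 200 ug, bFGF2 10 ng/ml.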
“VCAN_3367 (FKNSSSAK; listed as Homo sapiens)”: the logFC.mEQ.over.Luc was −0.72.

The substance “VIM_276 (YESVAAKNLQ; listed as Homo sapiens)” had a logFC.mEQ.over.Luc of 0.06.

In turn, “VIM_322 (QVQSLTCEV; listed as Homo sapiens)” gave a logFC.mEQ.over.Luc of −0.10.

Turning to “ZSCAN4_25 (FQQSQGPAVQR; listed as Homo sapiens)”, the logFC.mEQ.over.Luc is given as −0.09.

The assay is the same for the next values; noted with them: log fold change, ADAMTS7 EQ over luciferase.
“TG_1017 (GASALLR; listed as Homo sapiens)” gave a logFC.mEQ.over.Luc of 1.03.

The substance “THBS1_972 (QNDPNWVVR; listed as Homo sapiens)” yielded a logFC.mEQ.over.Luc of −0.04.

As for “TLN1_1501 (HTSALCNSCR; listed as Homo sapiens)”, the logFC.mEQ.over.Luc is on record as −0.17.

“TMEM132A_52 (LLDAPEHFR; listed as Homo sapiens)” returned a logFC.mEQ.over.Luc of −0.30.

With “VASN_138 (HIQPGAFDTLDR; listed as Homo sapiens)”, the logFC.mEQ.over.Luc is reported as 0.19.

“VASP_229 (AIAGAKLR; listed as Homo sapiens)”: the logFC.mEQ.over.Luc is −0.08.

For “VIM_433 (LVDTHSKR; listed as Homo sapiens)”, the logFC.mEQ.over.Luc was determined as 0.12.
